The values below come from the DeepSol protein solubility set.

This data set in a line: soluble on expression in E. coli; label from the status in PepcDB or PDB records.
In the case of “MGSIILKAFDESTEINGDSLDLGEIQLTPYKGRLTLELLKKPAHTSQEEPGLEQENLYNYTISIYNKTKQAKIKNFNIKPPYIFLNDTNIETGDVIEVTFTHKKDYTLPATIELTLDRLMNASGQAVAKENGKGMASIQSGNQRCELMVYNSDKKFIESCSMNREGKIISNPLKEGVYTFVFISSNNYLWRLNTLEQFEEIGLKEGIHFVKKEVEIKNGEIKDLGLIVVPELNEKELFFTDPDVASYAVVSENNRIGKDIVLRAKYSFRKPIESQTVKLLFRVPDQTFYVKDTLTIDGELVDSVNVSGSFIEVTTTKTEGVVRFNIRPTEAVVCYSNAYVEFKAEGRTVREPLGVVNEVVPYLTIGAPNVTSLEKVYVTGQTLPNLEVKIYDEGSLVGVTKANSTGAWNFQVSLGKDKSYSVHNLSARIEYNDQVIESETLEVIYKKSVPEIEKVTMIHSNQSLILYKNGEIVPKGVYTYVPSQSYTFIVDFVGDSAEEIENLCIVSNRNGEERKLDAKYDPQSKSWIATGSFGYNHVPGSFTVEYNLKKKRLIKEDGELNLEVLEQISTFADQFLYELKKENVMVGLLDENEIGFMLKEDTGGIAIVTIVIGDQPIEREKYEKMGYLFKEIDGKLGAVLLIKDETENKIFTSKVRLASNKTEDSVKSEDDDESSQKETPLVTKDERISMAATIIGELGNIAGSGKVVEAIDFISGIGTAVNTIAFTPANAVTDMGYVQKKLQESENISSEDKERLRDDLFLASGVYNFTVNANFIASLMDGHTRNGTMHKIIDIVIDKYDQYSLGDKLWEDIFGKNEDDRESGKSTKSGKGSSIKLPLQEQKTLVDPSGYVYETVPDNRITDATVTVYYKDENGEMILWNAEEFGQKNPLLTDENGFYAWDVPEGMWQVKVEKEGYETAYSEILPVPPVQTNVNIPLVSYEPPKVGHIYAYPEYIEIAFSKYVKHATLDSESIQLKQGENKVNIKIVYEDEEGNYSKKIKLIPAEKTSFEGKYTLNISKSITSYAGVAMQKAEIRDIEIVAEPKSIEILDKVEIELRKTVAIEIRVLPEEAAKGKKIIVTSGMEEIVSAEDVLLDERGRGKLKLKGNLPGTVDIDLRLEGSAVEKKIQATVKFPEDNGEIIEPPVVLNGDLNRNGIVNDEDYILLKNYLLRGNKLVIDLNVADVNKDGKVNSTDCLFLKKYILGLITI”, the “soluble on expression in E. coli” value is given as “not soluble”.

As for “MGSDKIHHHHHHMSETEPTSEQPHIAITGGAGYIGSRVIYELQQAHPDWEITAIDNFYLGTVQSVGDVDIEHVDIRNRDRLEAALDGADVVMHLAAVSGVDDCEEKQDLAYEVNVQGTDNVAWFCRKTGAALIFPFSMAVIGDPQEFPITVDHPRDPLNWYGRTKLLNERDVETYADGAFPAHQFMISNLYGSHEIDGQTVSKGTVINFFVNRALAGETLTVYEPGTQSRNFIHVKDVARAYVDSCERLLEQLDRGETGVEKYEIASDEDPSVHTVAKLVRDIAADIADIDADVELVENPRGDDETLVDSFTVDTGRTTAALGWTPEHDVESAIRTALESANT”, the “soluble on expression in E. coli” value is “not soluble”.

Turning to “VAYWLVKSEPSVWSWDQQVAKGAAGEAWTGVRNHSAKLHMVAMRRGDRAFYYHSNEGKEIVGIAEIIREAYPDPTDASGKFVCVDIKADKPLKTPVTLAAVKAEPRLADMALMKYSRLSVQPVTAEEWKLVCKMGGLLEHHHHHH”, the “soluble on expression in E. coli” value is listed as “soluble”.

As to “MLLFPRRTNIAFFKTTGIFANFPLLGRTITTSPSFLTHKLSKEVTRASTSPPRPKRIVVAITGATGVALGIRLLQVLKELSVETHLVISKWGAATMKYETDWEPHDVAALATKTYSVRDVSACISSGSFQHDGMIVVPCSMKSLAAIRIGFTEDLITRAADVSIKENRKLLLVTRETPLSSIHLENMLSLCRAGVIIFPPVPAFYTRPKSLHDLLEQSVGRILDCFGIHADTFPRWEGIKSK”, the “soluble on expression in E. coli” value is recorded as “soluble”.

Take “MDNLVDIDEDGTQEKLSVNSTPYQTQECVLYGSIFAKNVPDLERRLAGLCDPGCEEFFEHEMSFSLRSSGIMDIKTDIKLRRRFRTEHRIQNYWQLKYIGVPEPDQKCPTIVRKEISSLVHSQDMMTYAKSLGLRMDYEYMTQGKLWTKGNIKILHSILTSTSRAGTYDSNSIKSVSDSALVEISISLPESAEYMPAAKSLRDFADQLMPLVNMEKVDYWKKMFPAQAAPRR”: the “soluble on expression in E. coli” value is “soluble”.

As for “MKNPCNVIAIIGKPRDQQAIQTHKELYEWLTSEGYKVFIDDRLAAILDEIPQNHFASLVELGKNADLAIVVGGDGNMLGAARILSRFDVPVIGVNRGNLGFLTDLNPDDFQAALKAVLAGEYIEEERFLLEAEVHRHGQIKSHNAALNEAVLHPGQIAHMIEFEVYIDESFAFSLRADGLIVSTPTGSTAYSLSGGGPILSPSLNAISLVPMFPHTLSSRPLVVDGKRRIKLIVSPENRGTQEVSCDGQVSLPVSPGDEIHIYQSPNVLKLIHPKDYSYYHVLRNKLGWSSKLFMAGDPLEHHHHHH”, the “soluble on expression in E. coli” value was “soluble”.
